syn/allo ratio data for one substance are collected here from patent US20160340439A1.

What all share (test): IP + mass spec of B16 melanoma proteins; ratio to alloIgG
For assay [1], the target named is Angiomotin-like protein 2 (mouse) (UniProt Q8K371).
Assay [2] addresses Arginine and glutamate-rich protein 1 (mouse) (UniProt Q3UL36).
The target of assay [3] is CDGSH iron-sulfur domain-containing protein 1 (mouse) (UniProt Q91WS0).
The target of assay [4] is Disco-interacting protein 2 homolog B (mouse) (UniProt Q3UH60).
For assay [5], the target named is Fibrous sheath-interacting protein 2 (mouse) (UniProt A2ARZ3).
The target of assay [6] is Mitochondrial inner membrane protein (mouse) (UniProt Q8CAQ8).
For the next assay, the target named is Nicalin (mouse) (UniProt Q8VCM8).
Assay [7] concerns the target Stromal cell-derived factor 2-like protein 1 (mouse) (UniProt Q9ESP1).
Assay [8] has as its target Translocation protein SEC62 (mouse) (UniProt Q8BU14).
In assay [9] the target is Trifunctional enzyme subunit beta, mitochondrial (mouse) (UniProt Q99JY0).
In assay [10] the target is Vacuolar protein sorting-associated protein 35 (mouse) (UniProt Q9EQH3).

UniProt Q99JY0, sequence (Q99JY0 35-475 limits assumed): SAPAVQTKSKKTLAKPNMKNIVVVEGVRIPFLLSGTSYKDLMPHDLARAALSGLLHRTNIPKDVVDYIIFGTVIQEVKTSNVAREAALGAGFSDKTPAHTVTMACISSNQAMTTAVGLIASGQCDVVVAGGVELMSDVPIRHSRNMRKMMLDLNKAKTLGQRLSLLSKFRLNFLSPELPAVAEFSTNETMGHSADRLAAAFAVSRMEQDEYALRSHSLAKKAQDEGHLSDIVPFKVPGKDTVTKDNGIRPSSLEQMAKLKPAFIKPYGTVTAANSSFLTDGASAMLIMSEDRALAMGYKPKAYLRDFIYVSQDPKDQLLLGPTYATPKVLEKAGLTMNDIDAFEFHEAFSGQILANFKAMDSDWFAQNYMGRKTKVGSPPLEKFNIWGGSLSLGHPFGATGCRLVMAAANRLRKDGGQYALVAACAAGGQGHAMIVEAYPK
UniProt Q3UL36, sequence (Q3UL36 whole entry, the tested form may be a part): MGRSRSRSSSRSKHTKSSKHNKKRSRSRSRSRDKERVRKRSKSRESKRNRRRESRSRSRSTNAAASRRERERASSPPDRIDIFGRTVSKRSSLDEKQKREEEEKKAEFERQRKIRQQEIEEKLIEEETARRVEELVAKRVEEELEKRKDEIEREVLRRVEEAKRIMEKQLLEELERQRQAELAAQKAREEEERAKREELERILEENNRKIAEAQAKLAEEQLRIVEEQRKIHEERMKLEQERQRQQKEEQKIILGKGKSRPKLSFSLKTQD
UniProt Q91WS0, sequence (Q91WS0 whole entry, the tested form may be a part): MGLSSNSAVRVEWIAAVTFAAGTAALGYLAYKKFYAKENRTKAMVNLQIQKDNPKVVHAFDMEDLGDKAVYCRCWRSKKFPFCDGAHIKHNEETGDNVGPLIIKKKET
UniProt Q8K371, sequence (Q8K371 whole entry): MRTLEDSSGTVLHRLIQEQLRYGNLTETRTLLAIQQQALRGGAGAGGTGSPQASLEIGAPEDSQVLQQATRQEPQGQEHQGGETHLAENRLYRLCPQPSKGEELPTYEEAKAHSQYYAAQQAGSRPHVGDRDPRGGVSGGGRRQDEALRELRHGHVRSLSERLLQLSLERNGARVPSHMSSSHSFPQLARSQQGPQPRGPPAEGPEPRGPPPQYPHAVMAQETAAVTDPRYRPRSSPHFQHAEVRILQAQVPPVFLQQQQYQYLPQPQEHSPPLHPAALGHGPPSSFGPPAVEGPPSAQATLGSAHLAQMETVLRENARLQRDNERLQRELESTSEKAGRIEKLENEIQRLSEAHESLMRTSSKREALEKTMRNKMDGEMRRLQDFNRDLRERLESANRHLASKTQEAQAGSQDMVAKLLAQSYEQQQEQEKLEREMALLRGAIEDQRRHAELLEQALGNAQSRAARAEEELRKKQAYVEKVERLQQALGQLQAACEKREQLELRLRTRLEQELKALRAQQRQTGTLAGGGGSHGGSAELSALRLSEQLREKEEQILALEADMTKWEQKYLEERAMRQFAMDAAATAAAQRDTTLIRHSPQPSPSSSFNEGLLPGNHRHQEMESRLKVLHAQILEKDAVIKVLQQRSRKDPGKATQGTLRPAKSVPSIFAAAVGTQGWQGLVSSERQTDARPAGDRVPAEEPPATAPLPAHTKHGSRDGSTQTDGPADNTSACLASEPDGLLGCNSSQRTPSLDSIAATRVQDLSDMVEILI
UniProt Q8VCM8, sequence (Q8VCM8 43-563 limits assumed): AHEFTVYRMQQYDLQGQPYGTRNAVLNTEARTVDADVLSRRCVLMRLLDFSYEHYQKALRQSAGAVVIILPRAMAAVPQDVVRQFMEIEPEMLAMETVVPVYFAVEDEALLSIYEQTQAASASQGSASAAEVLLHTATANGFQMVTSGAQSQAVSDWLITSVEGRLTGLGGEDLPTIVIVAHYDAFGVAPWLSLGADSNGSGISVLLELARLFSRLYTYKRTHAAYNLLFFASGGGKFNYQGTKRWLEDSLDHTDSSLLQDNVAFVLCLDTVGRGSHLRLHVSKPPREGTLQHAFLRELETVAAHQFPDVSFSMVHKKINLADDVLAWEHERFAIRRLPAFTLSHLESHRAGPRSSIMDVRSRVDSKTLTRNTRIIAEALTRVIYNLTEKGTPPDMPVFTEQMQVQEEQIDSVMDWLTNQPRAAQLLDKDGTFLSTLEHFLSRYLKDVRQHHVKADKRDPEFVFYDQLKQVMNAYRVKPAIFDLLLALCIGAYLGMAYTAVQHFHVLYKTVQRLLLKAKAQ
UniProt Q8CAQ8, sequence (Q8CAQ8 34-757 limits assumed): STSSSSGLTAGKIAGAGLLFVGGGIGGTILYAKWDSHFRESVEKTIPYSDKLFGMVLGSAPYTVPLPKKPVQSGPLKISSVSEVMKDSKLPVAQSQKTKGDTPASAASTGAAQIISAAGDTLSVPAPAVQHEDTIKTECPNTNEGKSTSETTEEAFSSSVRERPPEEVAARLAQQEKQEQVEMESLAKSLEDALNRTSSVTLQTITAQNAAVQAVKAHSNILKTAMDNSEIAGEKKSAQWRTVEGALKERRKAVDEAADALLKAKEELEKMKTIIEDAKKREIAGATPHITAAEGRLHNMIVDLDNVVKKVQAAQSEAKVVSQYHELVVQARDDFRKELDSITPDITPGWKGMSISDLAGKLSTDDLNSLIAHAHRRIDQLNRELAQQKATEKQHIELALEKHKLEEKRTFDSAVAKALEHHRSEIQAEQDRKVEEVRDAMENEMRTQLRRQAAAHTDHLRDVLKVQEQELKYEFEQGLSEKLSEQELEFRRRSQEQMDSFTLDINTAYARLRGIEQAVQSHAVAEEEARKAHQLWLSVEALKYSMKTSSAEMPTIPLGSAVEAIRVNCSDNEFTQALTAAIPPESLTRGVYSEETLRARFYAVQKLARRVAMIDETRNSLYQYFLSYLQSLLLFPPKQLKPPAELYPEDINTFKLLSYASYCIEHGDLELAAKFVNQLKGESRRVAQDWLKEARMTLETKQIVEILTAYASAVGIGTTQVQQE
UniProt Q8BU14, sequence (Q8BU14 whole entry): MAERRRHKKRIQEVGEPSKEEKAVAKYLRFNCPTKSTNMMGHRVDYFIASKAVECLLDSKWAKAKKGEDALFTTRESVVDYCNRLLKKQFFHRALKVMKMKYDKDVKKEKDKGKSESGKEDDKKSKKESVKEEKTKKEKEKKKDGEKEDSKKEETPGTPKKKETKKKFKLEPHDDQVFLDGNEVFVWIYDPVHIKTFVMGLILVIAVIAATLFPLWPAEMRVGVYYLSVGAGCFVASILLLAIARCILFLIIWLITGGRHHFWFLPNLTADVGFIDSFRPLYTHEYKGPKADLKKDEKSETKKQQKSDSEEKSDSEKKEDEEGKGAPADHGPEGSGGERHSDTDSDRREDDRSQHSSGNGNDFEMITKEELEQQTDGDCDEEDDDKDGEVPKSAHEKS
UniProt Q9ESP1, sequence (Q9ESP1 29-221 limits assumed): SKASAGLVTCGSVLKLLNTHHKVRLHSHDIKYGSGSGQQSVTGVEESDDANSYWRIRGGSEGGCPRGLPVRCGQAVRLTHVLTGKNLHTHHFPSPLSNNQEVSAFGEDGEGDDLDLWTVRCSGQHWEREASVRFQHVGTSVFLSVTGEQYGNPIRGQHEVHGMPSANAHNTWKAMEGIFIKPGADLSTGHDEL
UniProt Q3UH60, sequence (Q3UH60 whole entry): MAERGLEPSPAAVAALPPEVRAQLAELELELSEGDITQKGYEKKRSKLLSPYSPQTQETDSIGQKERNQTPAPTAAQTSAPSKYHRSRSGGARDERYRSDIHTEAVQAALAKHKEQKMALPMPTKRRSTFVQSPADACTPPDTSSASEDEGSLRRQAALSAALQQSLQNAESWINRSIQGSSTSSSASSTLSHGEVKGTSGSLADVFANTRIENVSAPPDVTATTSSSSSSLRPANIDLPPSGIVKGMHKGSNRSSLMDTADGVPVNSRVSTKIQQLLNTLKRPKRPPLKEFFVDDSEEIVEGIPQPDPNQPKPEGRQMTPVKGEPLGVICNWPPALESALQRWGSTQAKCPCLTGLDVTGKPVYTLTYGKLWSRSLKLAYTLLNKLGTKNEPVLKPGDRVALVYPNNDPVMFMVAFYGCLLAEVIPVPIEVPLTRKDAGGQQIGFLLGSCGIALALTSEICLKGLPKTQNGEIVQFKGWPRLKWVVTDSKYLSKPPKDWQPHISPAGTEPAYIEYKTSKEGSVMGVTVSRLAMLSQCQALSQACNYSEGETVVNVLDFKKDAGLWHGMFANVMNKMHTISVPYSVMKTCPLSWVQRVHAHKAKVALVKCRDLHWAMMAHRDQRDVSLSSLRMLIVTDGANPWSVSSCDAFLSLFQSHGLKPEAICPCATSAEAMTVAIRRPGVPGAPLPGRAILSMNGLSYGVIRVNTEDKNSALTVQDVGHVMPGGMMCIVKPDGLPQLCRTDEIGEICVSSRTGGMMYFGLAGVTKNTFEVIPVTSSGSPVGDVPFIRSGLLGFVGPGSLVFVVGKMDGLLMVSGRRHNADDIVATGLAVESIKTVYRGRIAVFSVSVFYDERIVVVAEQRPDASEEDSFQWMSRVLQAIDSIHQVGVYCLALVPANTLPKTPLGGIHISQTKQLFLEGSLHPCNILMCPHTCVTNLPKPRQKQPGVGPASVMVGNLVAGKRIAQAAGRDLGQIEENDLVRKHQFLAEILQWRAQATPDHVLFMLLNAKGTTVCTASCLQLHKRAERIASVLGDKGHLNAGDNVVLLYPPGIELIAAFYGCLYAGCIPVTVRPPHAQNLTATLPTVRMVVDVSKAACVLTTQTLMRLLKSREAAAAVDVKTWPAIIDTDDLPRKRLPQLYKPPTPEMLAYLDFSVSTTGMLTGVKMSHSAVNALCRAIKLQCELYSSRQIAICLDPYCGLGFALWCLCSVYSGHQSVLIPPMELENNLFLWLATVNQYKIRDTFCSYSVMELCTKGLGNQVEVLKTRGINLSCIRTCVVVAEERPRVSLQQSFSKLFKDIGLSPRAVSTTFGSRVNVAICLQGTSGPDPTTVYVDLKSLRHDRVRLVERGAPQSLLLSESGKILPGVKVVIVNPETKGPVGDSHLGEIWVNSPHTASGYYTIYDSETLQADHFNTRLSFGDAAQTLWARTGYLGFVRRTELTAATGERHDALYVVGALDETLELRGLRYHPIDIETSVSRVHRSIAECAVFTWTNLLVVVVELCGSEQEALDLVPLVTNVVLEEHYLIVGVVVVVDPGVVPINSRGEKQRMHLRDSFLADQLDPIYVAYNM

Take “syngeneic IgG (from sera of C57B1/6 mice) (antibody)”: the syn/allo ratio worked out at 6 in assay [1]; 2 in assay [2]; 2 in assay [3]; 4 in assay [4]; 9 in [5]; 2.99 in assay [6]. The syn/allo ratio in the assay with Nicalin (mouse) came to 2; in [7], 3; in assay [8], 4; in [9], 2.6; in [10], 2.
